According to patent US20260297187 (published 2026):
Substitutions are numbered along the chain they refer to. Numbers in names are those of the source.

T1: CEACAM1-his (human)
T1 chain: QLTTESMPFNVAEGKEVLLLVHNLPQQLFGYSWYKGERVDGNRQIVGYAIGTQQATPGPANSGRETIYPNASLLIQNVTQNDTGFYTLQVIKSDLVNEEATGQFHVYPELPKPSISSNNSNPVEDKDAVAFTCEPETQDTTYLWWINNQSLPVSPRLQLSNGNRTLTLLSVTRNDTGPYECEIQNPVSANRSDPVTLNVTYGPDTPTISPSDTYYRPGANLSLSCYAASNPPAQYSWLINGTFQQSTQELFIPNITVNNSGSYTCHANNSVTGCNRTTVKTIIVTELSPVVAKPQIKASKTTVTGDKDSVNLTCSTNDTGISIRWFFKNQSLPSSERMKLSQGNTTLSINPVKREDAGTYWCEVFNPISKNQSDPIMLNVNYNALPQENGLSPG

T2: CEACAM6 (human, UniProt P40199)
T2 chain: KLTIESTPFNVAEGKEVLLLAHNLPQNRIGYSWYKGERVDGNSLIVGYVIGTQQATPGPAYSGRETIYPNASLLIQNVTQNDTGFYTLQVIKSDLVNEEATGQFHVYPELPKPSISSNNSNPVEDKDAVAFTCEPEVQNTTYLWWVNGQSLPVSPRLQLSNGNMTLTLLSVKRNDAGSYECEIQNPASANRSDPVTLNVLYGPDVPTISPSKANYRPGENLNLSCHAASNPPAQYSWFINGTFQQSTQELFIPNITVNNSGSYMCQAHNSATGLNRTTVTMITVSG

B1: h9D12.G4.H0aL7 (antibody, V domains shown)
VH: EVQLVQSGAEVKKPGATVKISCKVSGFNIKDTYMHWVQQAPGKGLEWMGRIDLASGDSKYDPKFQGRVTITADTSTDTAYMELSSLRSEDTAVYYCARAHFGGGNWYFDVWGQGTTVTVSS
VL: DIQLTQSPSFLSASVGDRVTITCSASSSVSYMHWYQQKPGQAPKPWIYEISKLASGVPSRFSGSGSGTEYTLTISSMQSEDFAVYYCQQWNYPLTFGQGTKLEIK
B2: h9D12.G4.H4L7 (antibody, V domains shown)
VH: B1 VH with E1Q, T17S, I20V, V24A, Q38R, K43Q, M48I, I70M, D77S, A79V
VL: B1 VL
B3: h4D10.G4.H4(N56Q Y100F)L2 (antibody, V domains shown)
VH: QVQLVQSGAEVKKPGASVKVSCKASGYTFSSYVIHWVRQAPGQGLEWMGYFNPYNQGTNYNENFKGRVTMTADTSTSTVYMELSSLRSEDTAVYYCARYFYASGSLYFDYWGQGTTVTVSS
VL: DIQMTQSPSTLSASVGDRVTITCSASSSVSYMHWYQQKPGKAPKPLIYEISKLASGVPSRFSGSGSGTEFTLTISSLQPDDAATYYCQQWNYPLITFGGGTKVEIK
B4: 9D12 (antibody, V domains shown)
VH: EVQLQQSGAELVKPGASVKLSCTASGFNIKDTYMHWVKQRPEQGLEWIGRIDLASGDSKYDPKFQGKATITADTSSNTAYLQFSSLTSEDTAVYYCARAHFGGGNWYFDVWGAGTTVTVSS
VL: EIVLTQSPAITAASLGQKVTITCSASSSVSYMHWYQQKSGTSPKPWIYEISKLASGVPARFSGSGSGTSYSLTISSMEAEDAAIYYCQQWNYPLTFGAGTKLELK
B5: 7D4 (antibody, V domains shown)
VH: EVQLQQSGAELVRPGASVKLSCTASGFNLKDTYMHWVKQRPEQGLEWIGRIDPSDGDTKYGPKFQDKTTITADTSSNTAYLQLSSLTSEDAAVYYCARAHFGGGGWYFDVWGAGTTVTVSS
VL: B4 VL with S30G, S75R, S76N
B6: h4D10.G4.H4(N56Q Y100F)L2(S28F S51M) (antibody, V domains shown)
VH: B3 VH
VL: B3 VL with S28F, S51M
B7: h4D10.G4.H4(H35M N56Q Y100F)L2 (antibody, V domains shown)
VH: B3 VH with H35M
VL: B3 VL
B8: h4D10.G4.H4(N56Q Y100F)L2(S28H) (antibody, V domains shown)
VH: B3 VH
VL: B3 VL with S28H
B9: h4D10.G4.H4(N56Q Y100F)L2(S28F S51M K52R) (antibody, V domains shown)
VH: B3 VH
VL: B3 VL with S28F, S51M, K52R
B10: h4D10.G4.H4(N56Q Y100F)L2(S28F K52R) (antibody, V domains shown)
VH: B3 VH
VL: B3 VL with S28F, K52R
B11: h4D10.G4.H4(N56Q Y100F)L2(K52R) (antibody, V domains shown)
VH: B3 VH
VL: B3 VL with K52R
B12: h4D10.G4.H4(N56Q Y100F)L2(S51M) (antibody, V domains shown)
VH: B3 VH
VL: B3 VL with S51M
B13: h4D10.G4.H4(N56Q Y100F)L2(S28F) (antibody, V domains shown)
VH: B3 VH
VL: B3 VL with S28F
B14: 4H11 (antibody, V domains shown)
VH: QIQLVQSGPELKKPGETVKISCKASGYTLTDYGMNWVSQAPGKGLKWVGWINTYTGEPTYADDFKGRFAFSLDTSASTAYLQINNLKNEDTATYFCARKNIYGYFDVWGAGTTVTVSS
VL: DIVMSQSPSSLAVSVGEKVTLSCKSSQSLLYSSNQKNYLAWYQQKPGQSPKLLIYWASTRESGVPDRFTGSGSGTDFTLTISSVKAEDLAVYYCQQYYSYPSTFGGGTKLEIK
B15: 4D10.G4 (antibody, V domains shown)
VH: EVQLQQSGPELVKPGASVKMSCKASGYTFSSYVIHWVRQKPGQGLEWIGYFNPYNNGTNYNENFKGKATLTSGKSSSTAYMELSSLTSEDSAVYYCARYYYASGSLYFDYWGQGTTLTVSS
VL: EIVLTQSPAIATASLGQKVTITCSASSSVSYMHWYQQKSGTSPKPWIYEISKLASGVPTRFSGSGSGTSYSLTISSMEAEDAAIYYCQQWNYPLITFGAGTKLELK
B16: P23B6 (antibody, V domains shown)
VH: QVQLLQPGAEPVKPGTSVKLSCKASGYNFTSYWLNWVKLRPGQGLEWIGDIHPGRGSINYNEKFKSKAILTVDTSSRTAYIQLSSLASEDSALYYCARADGSWFVYWGQGTLVTVSA
VL: DIVLTQSPASLAVSLGQRATISCRASQSVSTSSYSYMHWYQQKPGQPPKLLIKYASNLESGVPARFSGSGSGTDFTLNIHPVEEEDTATYYCQHSWEIPWTFGGGTKLEIK
B17: 2G12 (antibody, V domains shown)
VH: QIQLVQSGPELKKPGETVKISCKASGYSFTHHGMNWVKQAPGKDLKWMGWINTYTGEPTYADDFRGRFAFSLETSASTAYLQINNLKSEDTATYFCARKDYYISGNFDYWGQGTTLTVSS
VL: DIQMTQSPSSLSASLGERVSLTCRASQDIGSNLNWLQQEPDGTIKRLIYATSSLDSGVPKRFSGSRSGSDYSLTISSLESEDFVDYYCLQYASSPYTFGGGTKLEIK
B18: 5D5.G4 (antibody, V domains shown)
VH: B17 VH with S28T, F29L, H31N, H32Y, K43T, R65K, S88N, I103V
VL: B17 VL
B19: h4D10.G4.H4(N56I Y100F)L2 (antibody, V domains shown)
VH: B3 VH with Q56I
VL: B3 VL
B20: h4D10.G4.H4(N56V Y100V)L2 (antibody, V domains shown)
VH: B3 VH with Q56V, F100V
VL: B3 VL
B21: h4D10.G4.H4(N56Q Y100W)L2 (antibody, V domains shown)
VH: B3 VH with F100W
VL: B3 VL

Target: T1, CEACAM1-his
Assay: BLI

| Kd | Binder |
| --- | --- |
| 3.39 nM | B1 |
| 2.46 nM | B2 |
| 2.02 nM | B3 |

Target: T2, CEACAM6
Assay: BLI

| binding result | Binder |
| --- | --- |
| no binding | B4 |
| no binding | B5 |

Target: CEACAM1 (cell surface) (human)
Sequence (chain, as listed by the source): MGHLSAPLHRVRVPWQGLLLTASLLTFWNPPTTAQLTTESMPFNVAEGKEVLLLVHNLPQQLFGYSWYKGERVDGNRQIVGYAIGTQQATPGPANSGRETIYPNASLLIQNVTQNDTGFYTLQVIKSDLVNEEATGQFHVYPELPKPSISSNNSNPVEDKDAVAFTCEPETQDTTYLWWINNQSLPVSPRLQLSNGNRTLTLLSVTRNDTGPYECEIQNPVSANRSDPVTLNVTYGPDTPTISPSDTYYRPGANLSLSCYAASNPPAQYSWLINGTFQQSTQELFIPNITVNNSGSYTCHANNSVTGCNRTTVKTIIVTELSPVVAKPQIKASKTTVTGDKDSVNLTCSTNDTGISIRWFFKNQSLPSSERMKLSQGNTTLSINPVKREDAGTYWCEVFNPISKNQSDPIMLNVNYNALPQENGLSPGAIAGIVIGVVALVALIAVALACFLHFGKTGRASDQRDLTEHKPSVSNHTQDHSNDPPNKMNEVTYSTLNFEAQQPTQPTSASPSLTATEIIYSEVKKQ
Assay: FACS, BxPC-3

| EC50 | Binder |
| --- | --- |
| 0.0211 µg/mL | B3 |

Target: T1, CEACAM1-his
Assay: BLI
Remark: another data set of the same source

| Kd | Binder |
| --- | --- |
| 0.362 nM | B6 |
| 0.394 nM | B7 |
| 0.956 nM | B8 |
| 0.151 nM | B9 |
| 0.268 nM | B10 |
| 0.801 nM | B11 |
| 0.784 nM | B12 |
| 0.3 nM | B13 |

Target: T1, CEACAM1-his
Assay: BLI
Remark: another data set of the same source

| Kd | Binder |
| --- | --- |
| 3.51 nM | B14 |
| 2.9 nM | B4 |
| 6.97 nM | B5 |
| 1.89 nM | B15 |
| 6.31 nM | B16 |
| 2.19 nM | B17 |
| 2.11 nM | B18 |

Target: T1, CEACAM1-his
Assay: BLI
Remark: another data set of the same source

| Kd | Binder |
| --- | --- |
| 1.82 nM | B15 |
| 3.14 nM | B19 |
| 4.67 nM | B20 |
| 3.65 nM | B21 |
| 3.31 nM | B3 |

Target: T1, CEACAM1-his
Assay: BLI
Remark: another data set of the same source

| Kd | Binder |
| --- | --- |
| 3.39 nM | B1 |
| 2.46 nM | B2 |
